# Assay results from article PMC13389011, “Expedient single-round selection of hyper-modified aptamer targeting insulin receptor from over-represented dually nucleobase-modified DNA libraries”.
# Substitutions are numbered along the chain they refer to.
# B1: HIR-6_N (ssDNA)
# DNA: CATGACGCTCACTGTATCTCGCGTTTAACGTAACAGCGATGTCTCTCATGATGTC
# B2: HIR-8_N (ssDNA)
# DNA: B1 DNA with G23C, C34G
# B3: HIR-6_T9 (XNA)
# DNA: CGCTCACTGTATCTCGCGUUUAACGUAACAGCGAUGUCUC
# modifications: DNA backbone; 7-deaza-7-(indolyl-ethyl)-dA (dAAIn) at 22,23,27,28,30,34; 5-(phenyl-ethynyl)-dU (dUEPh) at 19,20,21,26,35,37,39
# B4: HIR-6_T4 (XNA)
# DNA: CGCTCACTGTATCTCGCGUUUAACGUAACAGCGAUGUCUCUCAUGAUGUC
# modifications: DNA backbone; 7-deaza-7-(indolyl-ethyl)-dA (dAAIn) at 22,23,27,28,30,34,43,46; 5-(phenyl-ethynyl)-dU (dUEPh) at 19,20,21,26,35,37,39,41,44,47,49
# B5: HIR-6_T1 (XNA)
# DNA: CATGACGCTCACTGTATCTCGCGUUUAACGUAACAGCGAUGUCUCUCAUG
# modifications: DNA backbone; 7-deaza-7-(indolyl-ethyl)-dA (dAAIn) at 27,28,32,33,35,39,48; 5-(phenyl-ethynyl)-dU (dUEPh) at 24,25,26,31,40,42,44,46,49
# B6: HIR-6_T7 (XNA)
# DNA: CGCTCACTGTATCTCGCGUUUAACGUAACAGCGAU
# modifications: DNA backbone; 7-deaza-7-(indolyl-ethyl)-dA (dAAIn) at 22,23,27,28,30,34; 5-(phenyl-ethynyl)-dU (dUEPh) at 19,20,21,26,35
# B7: HIR-6_T6 (XNA)
# DNA: TATCTCGCGUUUAACGUAACAGCGAUGUCUCUCAUGAUGUC
# modifications: DNA backbone; 7-deaza-7-(indolyl-ethyl)-dA (dAAIn) at 13,14,18,19,21,25,34,37; 5-(phenyl-ethynyl)-dU (dUEPh) at 10,11,12,17,26,28,30,32,35,38,40
# B8: HIR-6_T2 (XNA)
# DNA: CATGACGCTCACTGTATCTCGCGUUUAACGUAACAGCGAUGUCUC
# modifications: DNA backbone; 7-deaza-7-(indolyl-ethyl)-dA (dAAIn) at 27,28,32,33,35,39; 5-(phenyl-ethynyl)-dU (dUEPh) at 24,25,26,31,40,42,44
# B9: HIR-6_M2 (XNA)
# DNA: B1 DNA with T24U, T25U, T26U, T31U, T40U
# modifications: DNA backbone; 7-deaza-7-(indolyl-ethyl)-dA (dAAIn) at 27,28,32,33,35,39; 5-(phenyl-ethynyl)-dU (dUEPh) at 24,25,26,31,40
# B10: HIR-6_T8 (XNA)
# DNA: ACTGTATCTCGCGUUUAACGUAACAGCGAU
# modifications: DNA backbone; 7-deaza-7-(indolyl-ethyl)-dA (dAAIn) at 17,18,22,23,25,29; 5-(phenyl-ethynyl)-dU (dUEPh) at 14,15,16,21,30
# B11: HIR-6_T3 (XNA)
# DNA: CATGACGCTCACTGTATCTCGCGUUUAACGUAACAGCGAU
# modifications: DNA backbone; 7-deaza-7-(indolyl-ethyl)-dA (dAAIn) at 27,28,32,33,35,39; 5-(phenyl-ethynyl)-dU (dUEPh) at 24,25,26,31,40
# B12: HIR-6_T5 (XNA)
# DNA: ACTGTATCTCGCGUUUAACGUAACAGCGAUGUCUCUCAUGAUGUC
# modifications: DNA backbone; 7-deaza-7-(indolyl-ethyl)-dA (dAAIn) at 17,18,22,23,25,29,38,41; 5-(phenyl-ethynyl)-dU (dUEPh) at 14,15,16,21,30,32,34,36,39,42,44
# B13: HIR-6 (XNA)
# DNA: CATGACGCTCACTGTATCTCGCGUUUAACGUAACAGCGAUGUCUCUCAUGAUGUC
# modifications: DNA backbone; 7-deaza-7-(indolyl-ethyl)-dA (dAAIn) at 27,28,32,33,35,39,48,51; 5-(phenyl-ethynyl)-dU (dUEPh) at 24,25,26,31,40,42,44,46,49,52,54
# Biological target: Human insulin receptor ectodomain (HIR) (Homo sapiens, UniProt P06213-2 28-944)
# Experiment: FNBA; IB: PBS (1.5 mM KH2PO4, 8.1 mM Na2HPO4, 2.7 mM KCl, 137 mM NaCl) + 5 mM MgCl2, pH 7.4; MST +0.1% Pluronic F-127, 25 C; SPR 25 C; FNBA and BLI r.t.
# Details: protein: commercial; tags: His-tag; chain copies: 2; label: 5'-Cy5
# Human insulin receptor ectodomain (HIR) (Homo sapiens, UniProt P06213-2 28-944), sequence (P06213 other isoform, or with tags, fused parts or gaps): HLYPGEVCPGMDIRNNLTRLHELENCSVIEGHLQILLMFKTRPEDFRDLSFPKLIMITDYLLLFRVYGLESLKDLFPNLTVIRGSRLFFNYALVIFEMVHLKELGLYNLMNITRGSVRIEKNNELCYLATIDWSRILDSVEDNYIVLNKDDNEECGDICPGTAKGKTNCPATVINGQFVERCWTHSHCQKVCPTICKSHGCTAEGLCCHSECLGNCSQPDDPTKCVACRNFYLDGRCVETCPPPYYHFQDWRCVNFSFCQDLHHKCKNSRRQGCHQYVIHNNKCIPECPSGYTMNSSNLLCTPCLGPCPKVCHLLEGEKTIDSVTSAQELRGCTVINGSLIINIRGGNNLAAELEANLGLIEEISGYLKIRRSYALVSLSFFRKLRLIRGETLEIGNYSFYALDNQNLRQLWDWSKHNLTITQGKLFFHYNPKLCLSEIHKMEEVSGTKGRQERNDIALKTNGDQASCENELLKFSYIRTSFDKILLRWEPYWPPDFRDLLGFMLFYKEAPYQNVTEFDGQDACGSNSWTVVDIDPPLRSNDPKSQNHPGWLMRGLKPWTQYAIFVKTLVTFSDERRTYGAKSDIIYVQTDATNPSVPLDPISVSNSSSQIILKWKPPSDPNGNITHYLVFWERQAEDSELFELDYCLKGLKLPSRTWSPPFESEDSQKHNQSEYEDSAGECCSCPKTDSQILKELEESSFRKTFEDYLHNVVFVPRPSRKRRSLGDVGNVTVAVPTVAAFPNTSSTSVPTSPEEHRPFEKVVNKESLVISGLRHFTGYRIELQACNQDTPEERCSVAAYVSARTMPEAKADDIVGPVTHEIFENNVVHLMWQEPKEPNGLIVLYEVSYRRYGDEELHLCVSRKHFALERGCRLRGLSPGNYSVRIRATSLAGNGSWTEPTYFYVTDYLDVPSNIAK
row,Binder,binding result
1,B1,no binding
2,B2,no binding

# Biological target: Human insulin receptor ectodomain (HIR) (Homo sapiens, UniProt P06213-2;P06213-2 28-746;751-944)
# Experiment: fluorescent Ni-plate binding assay (FNBA); PBS (1.5 mM KH2PO4, 8.1 mM Na2HPO4, 2.7 mM KCl, 137 mM NaCl) with 5 mM MgCl2, pH 7.4; MST with 0.1% Pluronic F-127 at 25 C; FNBA at room temperature; high values mean tight binding
# Details: protein: commercial; tags: His-tag; chain copies: 2;2; label: 5'-Cy5
# Human insulin receptor ectodomain (HIR) (Homo sapiens, UniProt P06213-2;P06213-2 28-746;751-944), sequence (P06213 other isoform, or with tags, fused parts or gaps, chain 1 of 2): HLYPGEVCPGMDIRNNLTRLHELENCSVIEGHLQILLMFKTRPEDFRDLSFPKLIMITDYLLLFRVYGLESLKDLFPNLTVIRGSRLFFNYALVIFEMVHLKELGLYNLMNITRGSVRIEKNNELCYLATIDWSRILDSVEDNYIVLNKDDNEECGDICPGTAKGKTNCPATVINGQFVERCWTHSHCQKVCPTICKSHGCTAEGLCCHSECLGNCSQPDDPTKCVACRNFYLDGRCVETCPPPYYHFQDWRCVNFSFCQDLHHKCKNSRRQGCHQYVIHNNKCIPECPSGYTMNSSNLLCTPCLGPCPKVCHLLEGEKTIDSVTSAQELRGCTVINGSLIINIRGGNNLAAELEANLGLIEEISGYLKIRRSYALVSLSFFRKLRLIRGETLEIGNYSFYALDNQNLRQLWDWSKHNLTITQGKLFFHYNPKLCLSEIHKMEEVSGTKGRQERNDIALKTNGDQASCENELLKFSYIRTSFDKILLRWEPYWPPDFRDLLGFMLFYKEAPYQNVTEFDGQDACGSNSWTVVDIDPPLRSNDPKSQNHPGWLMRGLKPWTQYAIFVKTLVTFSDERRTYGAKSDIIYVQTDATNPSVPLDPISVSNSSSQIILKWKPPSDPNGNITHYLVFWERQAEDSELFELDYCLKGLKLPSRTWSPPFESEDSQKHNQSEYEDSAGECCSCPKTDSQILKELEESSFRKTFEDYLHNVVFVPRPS
# Human insulin receptor ectodomain (HIR) (Homo sapiens, UniProt P06213-2;P06213-2 28-746;751-944), sequence (P06213 763-956, chain 2 of 2): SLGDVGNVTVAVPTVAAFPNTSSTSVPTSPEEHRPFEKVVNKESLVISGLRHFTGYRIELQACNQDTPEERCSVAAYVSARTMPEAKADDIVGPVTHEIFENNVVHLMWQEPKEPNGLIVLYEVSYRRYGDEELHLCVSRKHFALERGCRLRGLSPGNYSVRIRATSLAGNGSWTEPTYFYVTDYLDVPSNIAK
row,Binder,binding signal [a.u. fluorescence]
1,B3,24700
2,B4,44700
3,B5,26300
4,B6,16500
5,B7,45500
6,B8,30900
7,B1,184 ± 176
8,B9,28300
9,B2,553 ± 165
10,B10,13400
11,B11,19900
12,B12,45900 ± 733

# Same assay, conditions: protein: commercial; tags: His-tag; chain copies: 2;2; label: 5'-Cy5; hairpin, stem 18-22/36-40, A35 bulge
row,Binder,binding signal [a.u. fluorescence]
1,B13,45000 ± 766
